Results on 2 molecules are retold here after patent CN112745389A (REYOUNG SUZHOU BIOPHARMACEUTICAL CO LTD, dated 2021).

Assay [1] has as its target T1, 人IL-5蛋白 (human interleukin-5) (human, UniProt P05113 20-134).
T1 sequence (looked up): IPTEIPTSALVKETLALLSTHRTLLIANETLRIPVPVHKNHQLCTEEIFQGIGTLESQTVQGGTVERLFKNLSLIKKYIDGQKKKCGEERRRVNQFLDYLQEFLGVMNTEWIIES
As to the kind of experiment: cell-based or functional assay.

Assay [2] deals with T1, 人IL-5蛋白 (human interleukin-5). As to the kind of experiment: affinity measurement (sensorgram, 1:1 binding model; Figure 3).

B1: RB0003-30E6D5 (antibody, V domains shown)
VH: EVQLQQSGAELVKPGASVKLSCTTSGFNIKDYFIHWVKQRTEQGLEWIGRIDPEDGETKYAPKFQGKATITADTSSNTAYLQLSSLTSEDTAVYYCVSYSTYPDYWGQGTTLTVSS
VL: HIVLTQSPALMSTSPGEKVTMTCSASSSVSYMYWYQQKPRSSPKPWIYLTSTLASGVPARFSGSGSGTSYSLTISSMEAEDAATYYCQQWSSTPFTFGSGTKLEIKR
With B1, in assay [1], the “IC50(ng/mL), 阻断增殖 (TF-1 proliferation, CellTiter-Glo)” value stood at 16.3 ng/mL.

B2: 人源化32D12C12抗体 (humanized 32D12C12) (antibody, V domains shown)
VH: EVQLVESGGGLVQPGGSLKLSCAASGFTFNTYAMNWVRQASGKGLEWVGRIRSKTANFATFYADSVTDRFTISRDDSKNTLYLQMNSLKTEDTAVYYCVRHGAYYTYDGAMDYWGQGTTVTVSS
VL: DIQMTQSPSSLSASVGDRVTITCKASQDVRTAIAWYQQKPGKAPKLLIYWASTRHTGVPSRFSGSGSGTDYTLTISSLQPEDFATYYCQQHYSTPYTFGQGTKLEIK
As for B2, the binding result in assay [2] is reported as “binds”.
